Assay results from paper PMC13233820, “Recruitment of Mre11 to recombination sites during meiosis” (Nature Communications, 2026).

Tests used:
pUC19 plasmid substrate = test: Gel shift assay, plasmid DNA binding; conditions: 1 nM pUC19, 25 mM HEPES-HCl pH 7.5, 100 mM NaCl, 5 mM EDTA, 30 °C 30 min
Description: Proteins were diluted to their appropriate working concentrations in their respective storage buffers. […] Reactions were assembled at 30 °C for 30 mins and resolved in a 1% agarose (SeaKem LE Agarose, Lonza) at 60 V for 120 mins at 4 °C. Gels were stained with SYBR Gold Nucleic Acid Gel Stain (S11497, Invitrogen) for 40 mins and visualized with Amersham Typhoon biomolecular imager (Cytiva).

[1] = test system: supercoiled pUC19 plasmid DNA; test: In vitro condensation assay of Mre11 (fluorescence microscopy); assay type: biochemical; conditions: eGFP-tagged truncations with plasmid DNA
Description: Fig. 1 Mre11 and the MRX complex assemble DNA-dependent condensates in vitro. a, c Effect of the presence of plasmid DNA on condensation of (a) Alexa488-labeled Mre11 (n = 11 and 9 fields of view for reactions without and with DNA, respectively) and (c) eGFP-tagged MRX (n = 11 (- DNA) and 9 ( + DNA)). Experiments were performed without PEG. b, d Effect of DNase I, in the absence of PEG, on (b) Mre11 (n = 9 (no treatment) and 11 (DNase I)) and (d) MRX (n = 9 (no treatment) and 11 (DNase I)) condensates. Condensates were pre-assembled for 20 min with 5.7 nM pUC19 prior to challenge. Quantification represents total foci intensity (green) in a field of view and total number of foci per 1000 µm^2 (magenta). Foci intensity is normalized to the mean intensity of samples with DNA for (a, c) and untreated samples for (b, d). […] Quantification represents total foci intensity (green) in a field of view (normalized to the mean of + PEG images) and total number of foci per 1000 µm^2 (magenta). […]
Fig. 2 The C-terminal IDR of Mre11 is required for condensation. a AlphaFold2 predicted model of Mre11 (AF-P32829-F1-v4). […] Quantification represents total fluorescence intensity (green) in a field of view and total number of foci per 1000 µm^2 (magenta). […]

Mer2 = test: Co-immunoprecipitation of Mer2 and Mre11 from meiotic extracts; assay type: binding, Saccharomyces cerevisiae; conditions: Supplementary Fig. 6i
Description: Meiotic cultures were collected at 4 h after transferring to SPM, washed once in ice-cold 1 × PBS containing 1 mM PMSF, following which, they were transferred to 1.5 ml screw-cap tubes and were either snap frozen in liquid nitrogen or processed directly. […] 900 µL of 0.5 mm zirconium beads were added to the cell pellet, and cells were lyzed in a Precellys bead beater at 7200 rpm for 12 × 15 seconds while chilling the tubes for 2 min on ice between each cycle. Cell extract was collected by poking a hole at the bottom of the tubes while placing the tubes on top of another 1.5 ml tubes and centrifuging at 800 × g for 1 min at 4 °C. Beads were washed with 500 µl of IP buffer and collected in the same tube. Cell lysate was spun again at 800 g for 5 min at 4 °C and supernatant was transferred to 15 mL tubes. Sonication was performed three times in ice in Bioruptor Plus at intensity (M) in a 30 s ON / 30 s OFF cycle for 15 min each time. The lysate was centrifuged at 15.000 g at 4 °C for 10 min and the supernatant (~ 800 µl) was transferred to new 1.5 ml tubes. 80 µL (10%) was collected as Input fraction and snap frozen. 1 µL of mouse monoclonal anti-myc primary antibody was added to each tube, and tubes were rotated overnight at 5 rpm at 4 °C. The following day, Dynabeads Protein G (30 µl per tube) were added to Protein LoBind tubes and washed two times with 1 mL IP buffer containing 1 mM PMSF using DynaMag2. The lysates with the antibody were transferred to the tubes containing Dynabeads and were rotated for 3-4 hours at 5 rpm at 4 °C, following which, the Dynabeads were collected and washed four times with 1 ml IP buffer containing 1 mM PMSF. Finally, 60 µL IP buffer and 20 µL 4 × Lammelli buffer was added to the tubes and incubated for 5 mins at 95 °C while shaking at 1000 rpm. TCA extraction was performed on the input fractions by adding 8 µL 100 % TCA (final 10 % TCA) and incubating on ice for 30 mins. Precipitated proteins were solubilized in 40 µL 1 × Laemmli sample buffer incubated for 5 mins at 95 °C. Immunoblotting was performed using the protocol described below.

spores of yeast strains = test: Spore viability assay; assay type: cell-based, Saccharomyces cerevisiae; conditions: Fig. 7c
Description: For the spore viability assay, a small patch of the diploid strain was incubated in sporulation media (2% potassium acetate) at 30 °C, 250 rpm for two days. After two days, 1 mL of sporulating culture was centrifuged, and all but 200 µL of supernatant was removed. To digest yeast cells, 2 µL of concentrated sporulation culture was mixed with 100 µL 1 M sorbitol and 1 µL 10 mg/ml zymolyase and incubated at 30 °C for 21 mins. 20 µL of digested cells were dropped on a YPD plate, left to dry for about 10 mins, and were micromanipulated using a tetrad dissector (MSM400, Singer Instruments). At least 20 tetrads were dissected for each assay, and spore viability was assessed by calculating the number of viable spores after 2 days of incubation at 30 °C.

B1: Mre11-IDR: Mre11 disordered region alone (524-677) (protein, UniProt P32829 524-677, looked up, fragment)
chain: NSVRPTPPKENDETNFAFNGNGLDSFRSSNREVRTGSPDITQSHVDNESRITHISQAESSKPTSKPKRVRTATKKKIPAFSDSTVISDAENELGDNNDAQDDVDIDENDIIMVSTDEEDASYGLLNGRKTKTKTRPAASTKTASRRGKGRASRT
DNA-binding activity (in words) (pUC19 plasmid substrate): reduced DNA binding as compared to the wild type or Mre11^ΔIDR
Condensation of Mre11 truncations (in words) [1]: failed to form condensates

B2: Mre11-ΔC15: Mre11 lacking the C-terminal 15-residue α-helix (protein)
chain: MDYPDPDTIRILITTDNHVGYNENDPITGDDSWKTFHEVMMLAKNNNVDMVVQSGDLFHVNKPSKKSLYQVLKTLRLCCMGDKPCELELLSDPSQVFHYDEFTNVNYEDPNFNISIPVFGISGNHDDASGDSLLCPMDILHATGLINHFGKVIESDKIKVVPLLFQKGSTKLALYGLAAVRDERLFRTFKDGGVTFEVPTMREGEWFNLMCVHQNHTGHTNTAFLPEQFLPDFLDMVIWGHEHECIPNLVHNPIKNFDVLQPGSSVATSLCEAEAQPKYVFILDIKYGEAPKMTPIPLETIRTFKMKSISLQDVPHLRPHDKDATSKYLIEQVEEMIRDANEETKQKLADDGEGDMVAELPKPLIRLRVDYSAPSNTQSPIDYQVENPRRFSNRFVGRVANGNNVVQFYKKRSPVTRSKKSGINGTSISDRDVEKLFSESGGELEVQTLVNDLLNKMQLSLLPEVGLNEAVKKFVDKDEKTALKEFISHEISNEVGILSTNEEFLRTDDAEEMKALIKQVKRANSVRPTPPKENDETNFAFNGNGLDSFRSSNREVRTGSPDITQSHVDNESRITHISQAESSKPTSKPKRVRTATKKKIPAFSDSTVISDAENELGDNNDAQDDVDIDENDIIMVSTDEEDASYGLLNGRKTKTKTRPAASTKTASRRGKGRASRT
modifications: left off: Gal4 activation domain (from the vector pGAD-C1), end not stated, kept
notes: Mre11 lacking the C-terminal 15-residue α-helix
Normalized to WT Mer2 IP (Mer2; Experiment 1): 68.56

B3: Mre11-myc (WT) (protein, UniProt P32829 1-692, looked up)
Double-strand break repair …: MDYPDPDTIRILITTDNHVGYNENDPITGDDSWKTFHEVMMLAKNNNVDMVVQSGDLFHVNKPSKKSLYQVLKTLRLCCMGDKPCELELLSDPSQVFHYDEFTNVNYEDPNFNISIPVFGISGNHDDASGDSLLCPMDILHATGLINHFGKVIESDKIKVVPLLFQKGSTKLALYGLAAVRDERLFRTFKDGGVTFEVPTMREGEWFNLMCVHQNHTGHTNTAFLPEQFLPDFLDMVIWGHEHECIPNLVHNPIKNFDVLQPGSSVATSLCEAEAQPKYVFILDIKYGEAPKMTPIPLETIRTFKMKSISLQDVPHLRPHDKDATSKYLIEQVEEMIRDANEETKQKLADDGEGDMVAELPKPLIRLRVDYSAPSNTQSPIDYQVENPRRFSNRFVGRVANGNNVVQFYKKRSPVTRSKKSGINGTSISDRDVEKLFSESGGELEVQTLVNDLLNKMQLSLLPEVGLNEAVKKFVDKDEKTALKEFISHEISNEVGILSTNEEFLRTDDAEEMKALIKQVKRANSVRPTPPKENDETNFAFNGNGLDSFRSSNREVRTGSPDITQSHVDNESRITHISQAESSKPTSKPKRVRTATKKKIPAFSDSTVISDAENELGDNNDAQDDVDIDENDIIMVSTDEEDASYGLLNGRKTKTKTRPAASTKTASRRGKGRASRTPKTDILGSLLAKKRK
modifications: myc tag
Visible spore colonies (spores of yeast strains; spores placed: 144 (WT), 80 (ΔC15), 88 (SIM), 80 (ΔC15+ SIM)): 140
Spore Viability (spores of yeast strains; visible spore colonies of spores placed): 97.22

B4: Mer2-EQEK (protein)
chain: MVARGRTDEISTDVSEANSEHSLMITETSSPFRSIFSHSGKVANAGALEASDKAILAWAGALELESMELRENSDKLIKVLNENSKTLCKSLNKFNQLLEQDAATNGNVKTLIKDLASQIENQLDKVSTAMLSKGDEKKTKSDSSYRQVLVEEISRYNSKITRHVTNKQHETEKSMRCTQEMLFNVGSQLEDVHKVLLSLSKDMHSLQTRQTALEMAFREKADHAYDRPDVSLNGTTLLHDMDEAHDKQRKKSVPPPRMMVTRSMKRRRSSSPTLSTSQNHNSEDNDDASHRLKRAARTIIPWEELRPDTLESEL
modifications: left off: V5, internal (after residue 248), kept
Normalized to WT Mer2 IP (Mer2; Experiment 1): 56.73
Normalized to WT Mer2 IP (Mer2; Experiment 2): 70.72
